For one data set, the target named is PhnX (Vibrio splendidus, UniProt A0ABV4LR11). Description: 1H NMR, disappearance of PAA. The conditions noted are these: PAA generated in situ by PhnW or PbfA; 50 mM potassium phosphate pH 8.0, 100 mM KCl, 5 mM MgCl2, 25 °C. The data set is classed as biochemical.
The subject of the next data set is NC[C@H](O)P(=O)(O)O. Kind of data set: purified protein. The conditions noted are these: TEA-HCl pH 8.0, 25 °C, 5 mM MgCl2, 5 μM PLP, 0.07% BSA, 1,2-elimination.

Consider `O=CCP(=O)(O)O` [PAA], for which the “1H NMR, disappearance of PAA” value at PhnX was “Addition of PhnX (blue) led to disappearance of PAA”.
PbfA (Vibrio splendidus 12B01): in the data set with NC[C@H](O)P(=O)(O)O, the Michaelis-Menten constant (Km) was 430 ± 60 µM and the kcat amounted to 5.3 ± 0.3 s^–1.

Values taken from publication PMC8154272, “Discovery of a New, Recurrent Enzyme in Bacterial Phosphonate Degradation: (R)-1-Hydroxy-2-aminoethylphosphonate Ammonia-lyase” (Biochemistry, 2021).
